Reference: patent WO2021028752A1 (dated 2021)

Target: recombinant human TNFa (human, UniProt P01375 77-233, 125I label (only in the receptor inhibition assay))
Test: cell-based or functional assay

Sequence of recombinant human TNFa (P01375 77-233 limits assumed): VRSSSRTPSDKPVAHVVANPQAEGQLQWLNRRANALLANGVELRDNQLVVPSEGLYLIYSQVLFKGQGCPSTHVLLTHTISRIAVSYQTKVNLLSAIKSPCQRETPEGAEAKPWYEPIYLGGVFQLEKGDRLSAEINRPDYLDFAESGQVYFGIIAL

B1: TNV196 (antibody, V domains shown)
VH: QVQLVESGGGVVQPGRSLRLSCAASGFTFSSYAMHWVRQAPGKGLEWVAFISYDGSNKKSADSVKGRFTVSRDNSKNTLFLQMNSLRAEDTAVFYCARDRGIGAGGNYYYYGMDVWGQGTTVTVSS
VL: EIVLTQSPATLSLSPGERATLSCRASQSVYSYLAWYQQKPGQAPRLLIYDASNRATGIPARFSGSGSGTDFTLTISSLEPEDFAVYYCQQRSNWPPFTFGPGTKVDIK
- neutralizing TNFa bioactivity: 4 fold
